System: T1, O[C@H]1[C@H](O)[C@@H](O)[C@H](O)[C@@H](O)[C@H]1O
T1 construct: full-length CDS with C-terminal dileucine motif mutated (LL489/490AA) for plasma membrane targeting; cRNA-injected Xenopus laevis oocytes
Assay: two-electrode voltage clamp, inward currents in Xenopus oocytes, Michaelis-Menten fit
Format: cell-based, Beta vulgaris
Details: pH 5.5, room temperature, holding potential -20 mV, 96 mM NaCl bath, inositol/H+ symport, n = 7 oocytes

With “BvINT1;1 LL489/490AA (INT1;1^PM, BvINT1;1^PM) (Beta vulgaris subsp. vulgaris; L489A/L490A)” the Km was 2300 ± 300 µM.
